# Experimental data published in article PMC10460880, “Cathepsin K‐Activated Probe for Fluoro‐Photoacoustic Imaging of Early Osteolytic Metastasis” (Advanced Science, 2023).
# Key:
# [1] = test system: CTSK + 2-CP; CTSB, FAP-α, Casp-3, APN, GGT, ALP, ACE, trypsin; test: Selectivity study: fluorescence activation with inhibited CTSK or other proteases; type: biochemical; conditions: probe 10 μM, 1 h; 2-CP 50 mM pre-treatment 30 min; n = 3
# Description: In vitro analysis of cathepsin K (CTSK) activation, selectivity, and sensitivity studies.
# Probe CTSK-APPA, D-CTSK-APPA, or CTSK-APP (10 μM) was incubated with CTSK in MES buffer (50 mM, pH 6.0) containing 0.1% DMSO, 2 mM ethylene diamine tetraacetic acid (EDTA), 4 mM dithiothreitol (DTT) and 0.15% chondroitin sulfate (CS) at 37 °C for 1 h. After incubation at the indicated time, UV-Vis spectra, fluorescence spectra, fluorescence images, and PA images of the solutions were recorded. Probe CyP (10 μM) incubated with CTSK (200 ng/mL) for 1 h was further analyzed by HPLC. For selectivity study, CTSK-APPA (10 μM) in a 96-well plate was incubated with CTSK (100 ng/mL), CTSB (100 ng/mL), FAP-α (9×10-4 U/mL), Caspase-3 (100 ng/mL), APN (100 ng/mL), GGT (0.1 U/mL), ALP (0.1 U/mL), ACE (1×10-3 U/mL), and trypsin (10 U/L) at […] for 1 h. For the inhibitory experiment, CTSK (100 ng/mL) was treated with CTSK inhibitor 2-Cyanopyrimidine (2-CP, 50 mM) at 37°C for 30 min. […]
# Kinetic assay. […] Fluorescence intensities of solution were measured for quantification analyses by a microplate reader (BioTek, Synergy 2) with excitation at 690 nm and emission at 720 nm. The kinetic parameters were calculated according to the Michaelis-Menten equation shown below: V = Vmax×[S]/(Km + [S]), where V is initial velocity, and [S] is substrate concentration. […]
# cathepsin K (CTSK) = molecular target: T1, cathepsin K (CTSK) (Homo sapiens, UniProt P43235); test: CTSK activation of probe adsorbed on HA; type: biochemical; conditions: probe 10 μM on HA 10 mg/mL (30 min), then CTSK 200 ng/mL, n = 3
# T1 sequence (P43235 115-329): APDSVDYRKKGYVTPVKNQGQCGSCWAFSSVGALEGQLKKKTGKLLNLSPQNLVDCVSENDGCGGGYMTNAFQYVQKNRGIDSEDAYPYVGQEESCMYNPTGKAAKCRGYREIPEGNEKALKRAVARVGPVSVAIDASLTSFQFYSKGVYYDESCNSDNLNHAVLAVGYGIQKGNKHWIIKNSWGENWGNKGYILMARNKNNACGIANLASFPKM
# Description: In Vitro bone-binding and CTSK activation assay. Hydroxyapatite (HA) was used as a substitute for bone in vitro to evaluate the bone-binding ability of CTSK-APPA and CTSK-APP. CTSK-APPA or CTSK-APP (10 μM) was mildly stirred with HA (10 mg/mL) at 37 °C for different times (0, 10, 30, 60, and 120 min). The mixture was centrifugated at 4000 g for 5 min and then washed with a 10-fold excess of PBS (1×) three times. The efficiency of HA binding was determined from the fluorescence intensities of the precipitation according to the equation: (F – Fblank)/(F0 – Fblank)*100%, where F represents the fluorescence intensity of the precipitation incubated with HA for a determined time, and Fblank represents the blank fluorescence intensity. After verifying the appropriate bone-binding time, CTSK-APPA or CTSK-APP (10 μM) was mixed with HA (10 mg/mL) at 37 °C for 30 min, and then CTSK (200 ng/mL) was added to the corresponding mixture and incubated at 37 °C for another 1 h under mild stirring. The mixture was centrifugated at 4000 g for 5 min and then washed with a 10-fold excess of MES buffer (50 mM, pH 6.0) three times. Fluorescence images were captured by using the IVIS Spectrum imaging system with excitation at 660 ± 10 nm and emission at 710 ± 10 nm. PA images were captured by using a MSOT scanner with excitation at 700 nm. […]
# [2] = test system: BMMs, MDA-MB-231 cells, MCF-7 cells, neutrophils; test: Cell selectivity experiment, other cells; type: cell-based; conditions: MDA-MB-231, MCF-7, neutrophils, n = 3
# [3] = Histology (H&E) of organs after injection; type: in vivo, mice; conditions: 24 h post intravenous administration
# [4] = Fluorescence quantum yield and molar extinction coefficient; type: physicochemical; conditions: MES buffer 50 mM pH 6.0, 0.1% DMSO
# Description: Determination of the fluorescence quantum yield and molar extinction coefficient.
# Fluorescence quantum yield (Φf) was determined by using ICG (Φf = 0.13 in DMSO) as a fluorescence standard. The quantum yield was calculated using the following equation: ΦF(X) = ΦF(S) (ASFX / AXFS) (nX / nS)2, Where ΦF is the fluorescence quantum yield, A is the absorbance at the excitation wavelength, F is the area under the corrected emission curve, and n is the refractive index of the solvents used. Subscripts S and X refer to the standard and to the unknown, respectively. The excitation wavelength was at 690 nm while keeping the absorption below 0.05. To calculate the molar extinction coefficient (ε), the absorption at 690 nm of different concentrations of the CTSK-APPA before or after CTSK cleavage (0, 0.5, 1, 2, 5, 10 μM) was measured. According to the Lambert-Beer law, the extinction coefficient was the slope of the fitted curve between concentration and absorption. Both fluorescence quantum yield and extinction coefficient were measured in MES buffer (50 mM, pH 6.0) containing 0.1% DMSO. […]
substance,measurement,setting,value
Cbz‐Leu‐Arg‐OH [CTSK-APPA],fluorescence activation at 720 nm by CTSK with inhibitor 2-CP or by other proteases,[1],almost no fluorescence activation
same,fluorescence on/off ratio of HA-adsorbed probe,"cathepsin K (CTSK); Ex 660 nm, 720 nm",5.1
same,enhancement factor for PA signal of HA-adsorbed probe,cathepsin K (CTSK); Ex 700 nm,approximately 2.8
same,NIR fluorescence activation by other cells,[2],did not induce NIR fluorescence activation
same,histological changes (H&E) after injection,[3],no histological changes
same,fluorescence quantum yield (Φf) after CTSK cleavage,"[4]; ICG standard, Ex 690 nm",3.5%
same,fluorescence quantum yield (Φf) before CTSK cleavage,"[4]; ICG standard, Ex 690 nm",0.5%
same,molar extinction coefficient ε after CTSK cleavage,"[4]; absorption at 690 nm, 0-10 μM",50230 M⁻¹ cm⁻¹
same,molar extinction coefficient ε before CTSK cleavage,"[4]; absorption at 690 nm, 0-10 μM",28580 M⁻¹ cm⁻¹
